Publication PMC10397247

Assays:
APC9319-AA = target: T1, APC9319-AA; assay: two-hybrid library CCmax; conditions: mean of both orientations;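 note: natural log of median RNA to DNA barcode read ratio; higher means stronger binding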
T1 chain: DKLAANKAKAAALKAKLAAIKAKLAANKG

APC8910-AA = target: T2, APC8910-AA; assay: two-hybrid library CCmax; conditions: mean of both orientations;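 note: natural log of median RNA to DNA barcode read ratio; higher means stronger binding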
T2 chain: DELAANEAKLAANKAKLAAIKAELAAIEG

APC4436-AA = target: T3, APC4436-AA; assay: two-hybrid library CCmax; conditions: mean of both orientations;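 note: natural log of median RNA to DNA barcode read ratio; higher means stronger binding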
T3 chain: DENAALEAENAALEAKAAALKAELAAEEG

APC8191-AA = target: T4, APC8191-AA; assay: two-hybrid library CCmax;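 note: natural log of median RNA to DNA barcode read ratio; higher means stronger binding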
T4 chain: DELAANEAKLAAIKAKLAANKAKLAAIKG

APC4264-AA = target: T5, APC4264-AA; assay: two-hybrid library CCmax;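 note: natural log of median RNA to DNA barcode read ratio; higher means stronger binding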
T5 chain: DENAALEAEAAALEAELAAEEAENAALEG

APC5383-AA = target: T6, APC5383-AA; assay: two-hybrid library CCmax; conditions: mean of both orientations;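 note: natural log of median RNA to DNA barcode read ratio; higher means stronger binding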
T6 chain: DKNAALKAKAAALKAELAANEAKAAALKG

APC7099-AA = target: T7, APC7099-AA; assay: two-hybrid library CCmax; conditions: mean of both orientations
T7 chain: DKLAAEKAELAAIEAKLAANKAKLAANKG

APC9096-AA = target: T8, APC9096-AA; assay: two-hybrid library CCmax; conditions: mean of both orientations
T8 chain: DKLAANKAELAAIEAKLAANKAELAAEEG

APC6108-AA = target: T9, APC6108-AA; assay: two-hybrid library CCmax; conditions: mean of both orientations
T9 chain: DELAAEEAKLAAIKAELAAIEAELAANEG

APC8401-AA = target: T10, APC8401-AA; assay: two-hybrid library CCmax; conditions: mean of both orientations
T10 chain: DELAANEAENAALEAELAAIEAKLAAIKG

APC9291-AA = target: T11, APC9291-AA; assay: two-hybrid library CCmax; conditions: mean of both orientations
T11 chain: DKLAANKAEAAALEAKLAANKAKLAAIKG

APC4336-AA = target: T12, APC4336-AA; assay: two-hybrid library CCmax; conditions: mean of both orientations
T12 chain: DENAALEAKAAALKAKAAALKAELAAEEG

APC9182-AA = target: T13, APC9182-AA; assay: two-hybrid library CCmax; conditions: mean of both orientations
T13 chain: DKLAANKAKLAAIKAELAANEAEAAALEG

APC5009-AA = target: T14, APC5009-AA; assay: two-hybrid library CCmax; conditions: mean of both orientations
T14 chain: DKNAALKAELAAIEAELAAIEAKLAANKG

APC4100-AA = target: T15, APC4100-AA; assay: two-hybrid library CCmax
T15 chain: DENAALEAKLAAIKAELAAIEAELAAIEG

APC6088-AA = target: T16, APC6088-AA; assay: two-hybrid library CCmax; conditions: mean of both orientations
T16 chain: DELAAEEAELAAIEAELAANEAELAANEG

APC9141-AA = target: T17, APC9141-AA; assay: two-hybrid library CCmax; conditions: mean of both orientations
T17 chain: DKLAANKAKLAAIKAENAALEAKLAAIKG

APC9806-AA = target: T18, APC9806-AA; assay: two-hybrid library CCmax; conditions: mean of both orientations
T18 chain: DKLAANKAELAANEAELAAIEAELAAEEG

APC8516-AA = target: T19, APC8516-AA; assay: two-hybrid library CCmax; conditions: mean of both orientations
T19 chain: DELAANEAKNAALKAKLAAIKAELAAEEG

APC542-AA = target: T20, APC542-AA; assay: two-hybrid library CCmax; conditions: mean of both orientations
T20 chain: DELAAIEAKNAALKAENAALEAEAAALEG

APC7524-AA = target: T21, APC7524-AA; assay: two-hybrid library CCmax; conditions: mean of both orientations
T21 chain: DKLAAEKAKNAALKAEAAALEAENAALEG

APC5531-AA = target: T22, APC5531-AA; assay: two-hybrid library CCmax; conditions: mean of both orientations
T22 chain: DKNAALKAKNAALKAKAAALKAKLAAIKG

4H796-bH = target: T23, 4H796-bH; assay: two-hybrid library CCNG1
T23 chain: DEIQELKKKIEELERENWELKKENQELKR

4H949-bH = target: T24, 4H949-bH; assay: two-hybrid library CCNG1
T24 chain: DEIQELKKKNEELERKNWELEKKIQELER

4H730-bH = target: T25, 4H730-bH; assay: two-hybrid library CCNG1
T25 chain: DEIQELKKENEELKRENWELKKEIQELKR

4H932-bH = target: T26, 4H932-bH; assay: two-hybrid library CCNG1
T26 chain: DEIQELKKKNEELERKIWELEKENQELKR

4H3381-bH = target: T27, 4H3381-bH; assay: two-hybrid library CCNG1
T27 chain: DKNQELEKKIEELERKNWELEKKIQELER

4H56-bH = target: T28, 4H56-bH; assay: two-hybrid library CCNG1
T28 chain: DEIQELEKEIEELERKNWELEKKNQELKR

4H349-bH = target: T29, 4H349-bH; assay: two-hybrid library CCNG1
T29 chain: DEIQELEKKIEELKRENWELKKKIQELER

4H32-AA = target: T30, 4H32-AA; assay: two-hybrid library CCmax; conditions: mean of both orientations
T30 chain: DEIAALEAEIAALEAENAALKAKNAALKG

4H3413-AA = target: T31, 4H3413-AA; assay: two-hybrid library CCmax; conditions: mean of both orientations
T31 chain: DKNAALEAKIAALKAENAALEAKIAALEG

4H340-AA = target: T32, 4H340-AA; assay: two-hybrid library CCmax; conditions: mean of both orientations
T32 chain: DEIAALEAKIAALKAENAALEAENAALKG

4H982-AA = target: T33, 4H982-AA; assay: two-hybrid library CCmax; conditions: mean of both orientations
T33 chain: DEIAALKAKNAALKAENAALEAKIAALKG

4H3588-AA = target: T34, 4H3588-AA; assay: two-hybrid library CCmax; conditions: mean of both orientations
T34 chain: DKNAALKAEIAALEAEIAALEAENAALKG

4H2907-AA = target: T35, 4H2907-AA; assay: two-hybrid library CCmax
T35 chain: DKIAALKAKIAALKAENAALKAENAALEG

4H3056-AA = target: T36, 4H3056-AA; assay: two-hybrid library CCmax; conditions: mean of both orientations
T36 chain: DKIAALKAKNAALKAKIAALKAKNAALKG

4H3697-AA = target: T37, 4H3697-AA; assay: two-hybrid library CCmax; conditions: mean of both orientations
T37 chain: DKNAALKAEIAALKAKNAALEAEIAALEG

4H3865-AA = target: T38, 4H3865-AA; assay: two-hybrid library CCmax; conditions: mean of both orientations
T38 chain: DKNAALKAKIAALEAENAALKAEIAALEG

4H697-AA = target: T39, 4H697-AA; assay: two-hybrid library CCmax; conditions: mean of both orientations
T39 chain: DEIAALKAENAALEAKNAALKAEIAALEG

4H3631-AA = target: T40, 4H3631-AA; assay: two-hybrid library CCmax; conditions: mean of both orientations
T40 chain: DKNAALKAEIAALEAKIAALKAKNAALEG

4H3606-AA = target: T41, 4H3606-AA; assay: two-hybrid library CCmax; conditions: mean of both orientations
T41 chain: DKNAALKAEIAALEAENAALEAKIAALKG

4H3133-AA = target: T42, 4H3133-AA; assay: two-hybrid library CCmax; conditions: mean of both orientations
T42 chain: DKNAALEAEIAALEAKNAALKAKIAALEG

4H3718-AA = target: T43, 4H3718-AA; assay: two-hybrid library CCmax; conditions: mean of both orientations
T43 chain: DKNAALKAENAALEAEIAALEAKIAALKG

4H3162-AA = target: T44, 4H3162-AA; assay: two-hybrid library CCmax; conditions: mean of both orientations
T44 chain: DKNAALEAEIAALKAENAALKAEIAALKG

4H3378-AA = target: T45, 4H3378-AA; assay: two-hybrid library CCmax; conditions: mean of both orientations
T45 chain: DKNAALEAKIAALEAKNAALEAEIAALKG

4H384-AA = target: T46, 4H384-AA; assay: two-hybrid library CCmax; conditions: mean of both orientations
T46 chain: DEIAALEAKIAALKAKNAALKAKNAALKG

Binder DENAALEAEAAALEAELAAEEAENAALEG [APC4264-AA] has an interaction score (APC9319-AA) of -1.52, an interaction score (APC8910-AA) of -1.81 and an interaction score (APC4436-AA) of -2.34. The interaction score (APC8191-AA) was -1.56, the interaction score (APC4264-AA) was -1.24 and the interaction score (APC5383-AA) was -1.3. For the same binder, the interaction score (APC7099-AA) was -1.96, the interaction score (APC9096-AA) was -1.45 and the interaction score (APC6108-AA) was -1.5.

With DENAALEAKLAAIKAELAAIEAELAAIEG [APC4100-AA] the interaction score (APC8401-AA) was -1.35, the interaction score (APC9291-AA) was -1.29 and the interaction score (APC4336-AA) was -0.916. For the same binder, the interaction score (APC9182-AA) was -1.63, the interaction score (APC5009-AA) was 0.706 and the interaction score (APC4100-AA) was 0.507. It also gave an interaction score (APC6088-AA) of -1.46, an interaction score (APC9141-AA) of -1.35 and an interaction score (APC9806-AA) of -1.87. The interaction score (APC8516-AA) was -1.71, the interaction score (APC542-AA) was -1.56 and the interaction score (APC7524-AA) was -1.84. The interaction score (APC5531-AA) was -0.557.

For DKNQELEKKIEELERKNWELEKKIQELER [4H3381-bH], the interaction score (4H796-bH) was -1.28, the interaction score (4H949-bH) was 0.43 and the interaction score (4H730-bH) was -1.42. For the same binder, the interaction score (4H932-bH) was -0.263, the interaction score (4H3381-bH) was 1.27 and the interaction score (4H56-bH) was -1.78. It also gave an interaction score (4H349-bH) of -1.42.

For DKIAALKAKIAALKAENAALKAENAALEG [4H2907-AA], the interaction score (4H32-AA) was 2.38, the interaction score (4H3413-AA) was -2.21 and the interaction score (4H340-AA) was 1.31. It also gave an interaction score (4H982-AA) of -1.58, an interaction score (4H3588-AA) of 1.57 and an interaction score (4H2907-AA) of -0.959. For the same binder, the interaction score (4H3056-AA) was -2.08, the interaction score (4H3697-AA) was -1.97 and the interaction score (4H3865-AA) was -1.75. For the same binder, the interaction score (4H697-AA) was -1.18, the interaction score (4H3631-AA) was -1.81 and the interaction score (4H3606-AA) was 0.48. For the same binder, the interaction score (4H3133-AA) was -1.24, the interaction score (4H3718-AA) was -1.65 and the interaction score (4H3162-AA) was -1.39. For the same binder, the interaction score (4H3378-AA) was -1.66 and the interaction score (4H384-AA) was 1.15.
